# The supplement of paper PMC9112550, “Optimization of the antimicrobial peptide Bac7 by deep mutational scanning” (BMC Biology, 2022)
# System: Escherichia coli TOP10
# Experiment: shrunken log2 fold change of peptide-encoding DNA abundance (4.5 h post-induction vs induction); higher = less antimicrobial activity (less host growth inhibition)
# Details: time post-induction: 4.5 h; library: site-saturation at positions 5, 18, 19, 20
# 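Note: peptides expressed intracellularly from a pBAD plasmid library in pooled LB shake-flask culture, induced with 0.3% L-arabinose, DNA abundance read by NGS, three biological replicates, DESeq2 with apeglm shrinkage.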
row,Sequence,shrunken log2 fold change
1,RRIRCRPPRLPRPRPRPEQCPRP,0.237
2,RRIRGRPPRLPRPRPRPHCYPRP,0.0539
3,RRIRERPPRLPRPRPRPIGTPRP,-0.976
4,RRIRNRPPRLPRPRPRPFAGPRP,0.0411
5,RRIRNRPPRLPRPRPRPSDVPRP,-1.29
6,RRIRLRPPRLPRPRPRPKAEPRP,0.375
7,RRIRCRPPRLPRPRPRPFRFPRP,-0.83
8,RRIRERPPRLPRPRPRPIGKPRP,0.133
9,RRIRERPPRLPRPRPRPNHYPRP,-1.57
10,RRIRIRPPRLPRPRPRPHGTPRP,-0.236
11,RRIRHRPPRLPRPRPRPPRMPRP,0.284
12,RRIRARPPRLPRPRPRPWFYPRP,0.0676
13,RRIRKRPPRLPRPRPRPIKEPRP,-0.0178
14,RRIRNRPPRLPRPRPRPMKEPRP,0.0626
15,RRIRCRPPRLPRPRPRPECQPRP,0.511
16,RRIRLRPPRLPRPRPRPVVTPRP,-0.0571
17,RRIRRRPPRLPRPRPRPKLEPRP,0.297
18,RRIRNRPPRLPRPRPRPHYMPRP,-0.389
19,RRIRCRPPRLPRPRPRPICSPRP,0.0973
20,RRIRTRPPRLPRPRPRPYSIPRP,0.015
21,RRIRARPPRLPRPRPRPTLHPRP,0.584
22,RRIRERPPRLPRPRPRPAPAPRP,0.305
23,RRIRQRPPRLPRPRPRPTATPRP,0.0728
24,RRIRQRPPRLPRPRPRPRTHPRP,0.167
25,RRIRHRPPRLPRPRPRPSSFPRP,0.0395

row,Sequence,shrunken log2 fold change
1,RRIRRRPPRLPRPRPRPLLTPRP,0.399
2,RRIRFRPPRLPRPRPRPEKFPRP,0.012
3,RRIRMRPPRLPRPRPRPFGWPRP,0.32
4,RRIRVRPPRLPRPRPRPATIPRP,-0.101
5,RRIRDRPPRLPRPRPRPKTFPRP,0.00972
6,RRIRDRPPRLPRPRPRPDFNPRP,-0.188
7,RRIRTRPPRLPRPRPRPHLVPRP,0.0214
8,RRIRARPPRLPRPRPRPQRYPRP,-0.071
9,RRIRPRPPRLPRPRPRPHQEPRP,4.12
10,RRIRWRPPRLPRPRPRPYACPRP,-0.355
11,RRIRIRPPRLPRPRPRPYAPPRP,-0.242
12,RRIRLRPPRLPRPRPRPCNTPRP,-0.186
13,RRIRCRPPRLPRPRPRPSNLPRP,-0.425
14,RRIRIRPPRLPRPRPRPHSMPRP,-0.382
15,RRIRPRPPRLPRPRPRPCWAPRP,0.21
16,RRIRGRPPRLPRPRPRPRFWPRP,0.943
17,RRIRLRPPRLPRPRPRPVALPRP,0.0145
18,RRIRERPPRLPRPRPRPIREPRP,0.0256
19,RRIRLRPPRLPRPRPRPMAYPRP,-0.0987
20,RRIRPRPPRLPRPRPRPNVSPRP,-0.0557
21,RRIRMRPPRLPRPRPRPEYRPRP,-0.000921
22,RRIRERPPRLPRPRPRPNSVPRP,0.0407
23,RRIRKRPPRLPRPRPRPPYCPRP,0.0662
24,RRIRVRPPRLPRPRPRPYTWPRP,-0.364
25,RRIRNRPPRLPRPRPRPDEEPRP,0.509

row,Sequence,shrunken log2 fold change
1,RRIRSRPPRLPRPRPRPACSPRP,0.147
2,RRIRDRPPRLPRPRPRPTPIPRP,0.103
3,RRIRLRPPRLPRPRPRPNYMPRP,-0.251
4,RRIRQRPPRLPRPRPRPCYAPRP,-0.251
5,RRIRFRPPRLPRPRPRPVWGPRP,0.311
6,RRIRDRPPRLPRPRPRPIQNPRP,0.0608
7,RRIRHRPPRLPRPRPRPVAEPRP,0.232
8,RRIRARPPRLPRPRPRPKTGPRP,0.427
9,RRIRNRPPRLPRPRPRPQTKPRP,0.173
10,RRIRGRPPRLPRPRPRPFKVPRP,-0.14
11,RRIRLRPPRLPRPRPRPVSEPRP,0.172
12,RRIRTRPPRLPRPRPRPYFIPRP,-0.872
13,RRIRGRPPRLPRPRPRPNYFPRP,0.0394
14,RRIRDRPPRLPRPRPRPMGSPRP,0.00408
15,RRIRVRPPRLPRPRPRPKTVPRP,-0.012
16,RRIRLRPPRLPRPRPRPAVSPRP,-0.0934
17,RRIRVRPPRLPRPRPRPLSWPRP,0.0819
18,RRIRDRPPRLPRPRPRPNKVPRP,-0.494
19,RRIRFRPPRLPRPRPRPPMVPRP,-0.391
20,RRIRQRPPRLPRPRPRPFLMPRP,-0.421
21,RRIRSRPPRLPRPRPRPLPGPRP,0.0761
22,RRIRKRPPRLPRPRPRPCRPPRP,0.0439
23,RRIRMRPPRLPRPRPRPKVPPRP,0.882
24,RRIRIRPPRLPRPRPRPYIVPRP,-0.0153
25,RRIRDRPPRLPRPRPRPDMTPRP,0.242
